We go through eight molecules from US20160002343A1 (AbbVie / Abbott, published 2016).

One assay deals with T1, TNF (mouse, UniProt P06804 80-235).
T1 sequence (looked up): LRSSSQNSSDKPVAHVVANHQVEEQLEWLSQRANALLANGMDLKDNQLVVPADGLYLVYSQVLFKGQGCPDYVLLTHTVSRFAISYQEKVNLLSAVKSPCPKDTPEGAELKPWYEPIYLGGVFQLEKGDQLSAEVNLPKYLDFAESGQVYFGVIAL
Description: cell-based or functional assay.

The target in assay [1] is T2, mouse Transferrin Receptor overexpressed on Hek 293 cells (mouse, UniProt Q62351 1-763).
T2 construct: whole, on cells; also called mTfR; Hek293/mTfR
T2 sequence (Q62351 whole entry): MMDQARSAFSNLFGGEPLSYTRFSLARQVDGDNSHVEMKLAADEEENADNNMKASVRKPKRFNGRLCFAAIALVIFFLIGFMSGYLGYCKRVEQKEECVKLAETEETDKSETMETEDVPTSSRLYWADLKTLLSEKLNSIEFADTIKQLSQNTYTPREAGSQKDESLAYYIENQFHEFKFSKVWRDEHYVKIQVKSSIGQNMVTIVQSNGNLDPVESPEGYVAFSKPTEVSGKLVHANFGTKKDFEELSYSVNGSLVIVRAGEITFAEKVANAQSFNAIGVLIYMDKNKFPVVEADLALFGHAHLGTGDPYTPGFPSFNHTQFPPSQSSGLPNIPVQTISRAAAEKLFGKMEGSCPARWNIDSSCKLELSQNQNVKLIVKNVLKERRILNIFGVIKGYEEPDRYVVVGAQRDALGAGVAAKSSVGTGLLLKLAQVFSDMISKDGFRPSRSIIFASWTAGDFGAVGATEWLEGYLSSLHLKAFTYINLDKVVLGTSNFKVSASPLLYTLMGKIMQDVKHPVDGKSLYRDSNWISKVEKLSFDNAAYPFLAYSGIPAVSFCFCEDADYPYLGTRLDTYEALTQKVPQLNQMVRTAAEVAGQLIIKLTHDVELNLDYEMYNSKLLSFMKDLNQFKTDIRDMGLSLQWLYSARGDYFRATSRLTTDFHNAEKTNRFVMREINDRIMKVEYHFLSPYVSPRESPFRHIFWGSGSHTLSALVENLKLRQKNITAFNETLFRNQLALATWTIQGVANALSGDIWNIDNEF
Description: 293/mTfR cell-based assay. Here is the method:
(§1) Meso-scale Discovery (MSD) Electrochemiluminescence (ECL) assays to screen for antibodies or DVD-Ig proteins that bind a desired target antigen expressed on the cell surface were performed as follows: Hek 293 cells overexpressing mouse Transferrin Receptor were added onto MSD 96-well plates (MSD Cat# L11 XB-3, lot#2290-EA). The plates which were blocked using blocking buffer (30% FBS Serum (Hyclone) in PBS) at 37° C. for 1 hour. After incubating at room temperature (RT) for 30 minutes with mild agitation, plates were washed with DPBS 3 times and Abs/DVD-Ig proteins (10,000 ng/ml) were added. After incubating for 1 hour at RT, plates were washed 3 times with DPBS and 25 μl of Goat anti-human Sulfo TAG (MSD Cat# R32AC-, Lot# W001162) at 1 μg/ml was added. Following incubation at RT for 1 hour, plates were washed and MSD read buffer was added before reading on a MSD SECTOR Imager 6000. EC50 values were obtained using Xlfit4 software package.

Assay [2] deals with mouse Transferrin Receptor overexpressed on Hek 293 cells (mouse) (UniProt Q62351). Description: cell-based MSD-ECL binding, Hek293/mTfR cells.
Sequence of mouse Transferrin Receptor overexpressed on Hek 293 cells (mouse) (Q62351 whole entry): as above
For assay [3], the target named is T3, rmTfR (123-763) (mouse, UniProt Q62351 123-763).
T3 construct: range 123-763; also called recombinant mouse transferrin receptor 123-763
T3 sequence (Q62351 123-763): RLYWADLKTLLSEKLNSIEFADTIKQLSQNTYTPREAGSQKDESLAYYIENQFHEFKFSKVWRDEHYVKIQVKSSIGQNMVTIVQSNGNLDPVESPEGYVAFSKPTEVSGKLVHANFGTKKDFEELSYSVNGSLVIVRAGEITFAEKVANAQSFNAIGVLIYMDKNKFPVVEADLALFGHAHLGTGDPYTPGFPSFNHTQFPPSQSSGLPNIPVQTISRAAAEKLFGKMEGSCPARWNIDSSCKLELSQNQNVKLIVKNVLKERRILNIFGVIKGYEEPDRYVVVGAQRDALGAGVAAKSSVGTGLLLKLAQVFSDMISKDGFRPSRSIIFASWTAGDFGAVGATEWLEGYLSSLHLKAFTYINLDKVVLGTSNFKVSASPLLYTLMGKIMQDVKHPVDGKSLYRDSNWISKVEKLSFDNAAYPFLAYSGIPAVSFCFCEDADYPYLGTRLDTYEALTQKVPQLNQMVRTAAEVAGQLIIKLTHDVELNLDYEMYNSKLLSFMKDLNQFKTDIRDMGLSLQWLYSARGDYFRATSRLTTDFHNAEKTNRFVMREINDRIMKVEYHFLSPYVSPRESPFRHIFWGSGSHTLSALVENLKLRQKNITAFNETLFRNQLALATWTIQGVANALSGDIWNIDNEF
As to the kind of experiment: Biacore SPR, antibody captured by anti-human IgG Fc, rmTfR (123-763) in solution. As for the experimental part: (§2) The BIACORE assay (Biacore, Inc, Piscataway, N.J.) was used to determine the affinity of antibodies or DVD-Ig proteins with kinetic measurements of on-rate and off-rate constants. Binding of antibodies or DVD-Ig protein to a target antigen (for example, a purified recombinant target antigen) was determined by surface plasmon resonance-based measurements with a Biacore® 1000 or 3000 instrument (Biacore® AB, Uppsala, Sweden) using running HBS-EP (10 mM HEPES [pH 7.4], 150 mM NaCl, 3 mM EDTA, and 0.005% surfactant P20) at 25° C. All chemicals were obtained from Biacore® AB (Uppsala, Sweden) or otherwise from a different source as described in the text. For example, approximately 5000 RU of goat anti-human IgG, (Fcγ), fragment specific polyclonal antibody (Pierce Biotechnology Inc, Rockford, Ill.) diluted in 10 mM sodium acetate (pH 4.5) was directly immobilized across a CM5 research grade biosensor chip using a standard amine coupling kit according to manufacturer's instructions and procedures at 25 μg/ml. Unreacted moieties on the biosensor surface were blocked with ethanolamine. Modified carboxymethyl dextran surface in flowcell 2 and 4 was used as a reaction surface. Unmodified carboxymethyl dextran without goat anti-human IgG in flow cell 1 and 3 was used as the reference surface. For kinetic analysis, rate equations derived from the 1:1 Langmuir binding model were fitted simultaneously to association and dissociation phases of all eight injections (using global fit analysis) with the use of BIAevaluation 4.0.1 software. Purified antibodies or DVD-Ig proteins were diluted in HEPES-buffered saline for capture across goat anti-human IgG specific reaction surfaces. Antibodies or DVD-Ig proteins to be captured as ligands (25 μg/ml) were injected over reaction matrices at a flow rate of 5 μl/minute. The association and dissociation rate constants, kon (M⁻¹ s⁻¹) and koff (s⁻¹) were determined under a continuous flow rate of 25 μl/minute. Rate constants were derived by making kinetic binding measurements at different antigen concentrations ranging from 10-200 nM. The equilibrium dissociation constant (M) of the reaction between antibodies or DVD-Ig proteins and the target antigen was then calculated from the kinetic rate constants by the following formula: KD=koff/kon. Binding was recorded as a function of time and kinetic rate constants were calculated.

The target in assay [4] is mouse Transferrin Receptor overexpressed on Hek 293 cells (mouse) (UniProt Q62351). As to the kind of experiment: mTfR binding cell-based assay.
Assay [5] addresses T2, mouse Transferrin Receptor …. As to the kind of experiment: cell-based MSD-ECL binding, Hek293/mTfR cells. Here is the method:
as §1

Assay [6] deals with mouse Transferrin Receptor overexpressed on Hek 293 cells (mouse) (UniProt Q62351). Description: TfR binding EC50, cell-based assay (repeats Table 7).
A further assay has as its target rmTfR (119-763) (mouse) (UniProt Q62351). As to the kind of experiment: Biacore SPR, antibody captured by anti-human IgG Fc, rmTfR (119-763) in solution.
Assay [7] concerns the target mouse Transferrin Receptor overexpressed on Hek 293 cells (mouse) (UniProt Q62351). Description: binding signal on TfR against 'Ab, ng/ml'; format not stated for this figure, Examples 4 and 9 describe the cell-based Hek293/mTfR MSD-ECL binding assay.
Assay [8] addresses T3, rmTfR (123-763). Description: Biacore SPR, DVD-Ig captured by anti-human IgG Fc, rmTfR (123-763) in solution. Here is the method:
as §2, with “Purified antibodies or DVD-Ig proteins were diluted in HEPES-buffered saline for capture across goat anti-human IgG specific reaction surfaces. Antibodies or DVD-Ig proteins to be captured as ligands (25 μg/ml) were injected over reaction matrices at a flow rate of 5 μl/minute.” left out, “Rate constants were derived by making kinetic binding measurements at different antigen concentrations ranging from 10-200 nM.” left out

Sequence of rmTfR (119-763) (mouse) (Q62351 119-763): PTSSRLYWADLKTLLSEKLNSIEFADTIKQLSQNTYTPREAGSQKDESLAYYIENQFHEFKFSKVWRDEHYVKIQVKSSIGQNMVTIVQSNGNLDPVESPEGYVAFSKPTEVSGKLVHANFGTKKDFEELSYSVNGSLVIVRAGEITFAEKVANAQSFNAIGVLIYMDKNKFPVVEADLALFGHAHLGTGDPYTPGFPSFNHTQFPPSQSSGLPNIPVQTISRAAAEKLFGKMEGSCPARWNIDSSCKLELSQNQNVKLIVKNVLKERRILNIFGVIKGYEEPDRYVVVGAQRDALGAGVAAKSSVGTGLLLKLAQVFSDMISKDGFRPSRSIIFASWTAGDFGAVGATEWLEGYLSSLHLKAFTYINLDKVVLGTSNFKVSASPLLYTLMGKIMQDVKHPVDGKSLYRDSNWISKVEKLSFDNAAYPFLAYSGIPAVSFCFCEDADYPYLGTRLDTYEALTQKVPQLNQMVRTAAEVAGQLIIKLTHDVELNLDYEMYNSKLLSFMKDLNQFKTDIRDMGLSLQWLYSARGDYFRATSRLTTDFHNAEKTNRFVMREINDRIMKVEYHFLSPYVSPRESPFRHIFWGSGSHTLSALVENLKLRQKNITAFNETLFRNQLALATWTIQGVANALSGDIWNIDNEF

B1: muTfR(AB405)-SL-muTNF(8C11) (bispecific antibody)
VH: QVQLVQSGAEVKKPGASVKVSCKASGFTFSNYGMHWIRQAPGQGLEWIAMIYYDSSKMNYADTVKGRFTITRDNSTNTLYMELSSLRSEDTAVYYCAVPTSHYVVDVWGQGTTVTVSSASTKGPEFQLQQSGPELVKPGASVRISCKASGYSFTDYNMNWVKQSNGKSLEWVGVINPNYGSSTYNQKFKGKATLTVDQSSSTAYMQLNSLTSEDSAVYYCARKWGQLGRGFFDVWGTGTTVTVSS
VL: EIVMTQSPATLSVSPGERATLSCQASQDIGNWLAWYQQKPGQSPRLLIYGATSLADGVPARFSGSRSGTEFTLTISSLQSEDFAVYYCLQAYNTPWTFGGGTKVEIKRTVAAPSVFIFPPQIVLSQSPAILSASPGEKVTMTCRASSSVSYMHWFQQKPGSSPKPWIYATSNLASGVPARFSGSGSGTSYSLTISRVEAEDAATYYCQQWSSSPLTFGAGTKLELK
notes: DVD-Ig; outer AB405 (TfR), inner 8C11 (TNF); also called TfR(AB405)-SL-TNF DVD-Ig protein; copies: 2 + 2
Consider B1, for which the “L929 TNF Neutralization assay IC50” value with TNF was 4.94 nM. In assay [1], the EC50 – broadly, the concentration needed to bring the measured effect to its halfway point – turned out to be 3.76 nM.

B2: AB402 (antibody, from another filing, V domains shown)
VH: EVQLVESGGGLVQPGGSLRLSCAASGFTFSNYGMHWIRQAPGKGLEWIAMIYYDSSKMNYADTVKGRFTISRDNAKNSLYLQMNSLRAEDTAVYYCAVPTSHYVVDVWGQGTTVTVSS
VL: AIQMTQSPSSLSASVGDRVTITCQASQDIGNWLAWYQQKPGKSPKLLIYGATSLADGVPSRFSGSRSGTDFTLTISSLQPEDFATYYCLQAYNTPWTFGGGTKVEIKR
Molecule B2 gave an EC50 in assay [2] of 0.06 nM. In the assay with rmTfR (123-763) [3], the equilibrium dissociation constant (Kd) (usually a measure of binding affinity in units of concentration) amounted to 3.7 nM; the koff – broadly, the rate constant with which the complex falls apart – was 6.12e-05 s⁻¹; the kon (in general, a measure of how fast the partners come together) was 16400 M⁻¹ s⁻¹. In addition, the EC50 in [4] was determined as 0.06 nM.

B3: muTNF(8C11)-GS-muTfR(AB221) (bispecific antibody)
VH: EFQLQQSGPELVKPGASVRISCKASGYSFTDYNMNWVKQSNGKSLEWVGVINPNYGSSTYNQKFKGKATLTVDQSSSTAYMQLNSLTSEDSAVYYCARKWGQLGRGFFDVWGTGTTVTVSSGGGGSGGGGSEVQLVESGGGLVQPGNSLTLSCVASGFTFSNYGMHWIRQAPKKGLEWIAMIYYDSSKMNYADTVKGRFTISRDNSKNTLYLEMNSLRSEDTAMYYCAVPTSHYVVDVWGQGVSVTVSS
VL: QIVLSQSPAILSASPGEKVTMTCRASSSVSYMHWFQQKPGSSPKPWIYATSNLASGVPARFSGSGSGTSYSLTISRVEAEDAATYYCQQWSSSPLTFGAGTKLELKRGGSGGGGSGDIQMTQSPASLSASLEEIVTITCQASQDIGNWLAWYQQKPGKSPQLLIYGATSLADGVPSRFSGSRSGTQFSLKISRVQVEDIGIYYCLQAYNTPWTFGGGTKLELK
notes: DVD-Ig; outer 8C11 (TNF), inner AB221 (TfR); also called 8C11-GS-AB221 DVD-Ig protein; TNF-GS-AB221; copies: 2 + 2
For B3, in the assay with TNF, the “L929 TNF Neutralization assay IC50” value came out at 0.59 nM. Further, the EC50 in assay [1] turned out to be 1.68 nM.

B4: DVD2366 (bispecific antibody)
VH-VH: EVQLLESGGGLVQPGGSLRLSCAASGFTFSNYGMSWVRQAPGKGLEWVASIRSGGGRTYYSDNVKGRFTISRDNSKNTLYLQMNSLRAEDTAVYYCVRYDHYSGSSDYWGQGTLVTVSSASTKGPQVQLVQSGAEVKKPGASVKVSCKASGFTFSNYGMHWIRQAPGQGLEWIAMIYYDSSKMNYADTVKGRFTITRDNSTNTLYMELSSLRSEDTAVYYCAVPTSHYVVDVWGQGTTVTVSS
VL-VL: DVVMTQSPLSLPVTPGEPASISCKSSQSLLDSDGKTYLNWLLQKPGQSPQRLIYLVSKLDSGVPDRFSGSGSGTDFTLKISRVEAEDVGVYYCWQGTHFPRTFGQGTKVEIKRTVAAPEIVMTQSPATLSVSPGERATLSCQASQDIGNWLAWYQQKPGQSPRLLIYGATSLADGVPARFSGSRSGTEFTLTISSLQSEDFAVYYCLQAYNTPWTFGGGTKVEIK
notes: DVD-Ig
As to B4, the binding result in assay [5] is “no binding (tested: 10,000 ng/ml)”.

B5: AB405 (antibody, from another filing, V domains shown)
VH: QVQLVQSGAEVKKPGASVKVSCKASGFTFSNYGMHWIRQAPGQGLEWIAMIYYDSSKMNYADTVKGRFTITRDNSTNTLYMELSSLRSEDTAVYYCAVPTSHYVVDVWGQGTTVTVSS
VL: EIVMTQSPATLSVSPGERATLSCQASQDIGNWLAWYQQKPGQSPRLLIYGATSLADGVPARFSGSRSGTEFTLTISSLQSEDFAVYYCLQAYNTPWTFGGGTKVEIKR
For the molecule B5, the EC50 in assay [2], in assay [4] and in [6] was 13.6 nM in each case.

B6: AB221 (antibody, from another filing, V domains shown)
VH: EVQLVESGGGLVQPGNSLTLSCVASGFTFSNYGMHWIRQAPKKGLEWIAMIYYDSSKMNYADTVKGRFTISRDNSKNTLYLEMNSLRSEDTAMYYCAVPTSHYVVDVWGQGVSVTVSS
VL: DIQMTQSPASLSASLEEIVTITCQASQDIGNWLAWYQQKPGKSPQLLIYGATSLADGVPSRFSGSRSGTQFSLKISRVQVEDIGIYYCLQAYNTPWTFGGGTKLELKR
Take B6: the EC50 in assay [2] was determined as 0.1 nM. In addition, in the assay with rmTfR (119-763) (mouse), the Kd amounted to 5 nM, the koff is 0.000181 s⁻¹ and the kon is 39400 M⁻¹ s⁻¹. The molecule further showed an EC50 in assay [4] of 0.12 nM. Moreover, the EC50 (read off the curve) (usually the midpoint of the concentration-response curve) in assay [7] worked out at 0.03 µg/mL. Further, in assay [6], the EC50 stood at 0.1 nM.

B7: DVD2360 (bispecific antibody)
VH: EVQLVESGGGLVQPGGSLRLSCAASGFTFSNYGMHWIRQAPGKGLEWIAMIYYDSSKMNYADTVKGRFTISRDNAKNSLYLQMNSLRAEDTAVYYCAVPTSHYVVDVWGQGTTVTVSSASTKGPEVQLLESGGGLVQPGGSLRLSCAASGFTFSNYGMSWVRQAPGKGLEWVASIRSGGGRTYYSDNVKGRFTISRDNSKNTLYLQMNSLRAEDTAVYYCVRYDHYSGSSDYWGQGTLVTVSS
VL: EIVMTQSPATLSVSPGERATLSCQASQDIGNWLAWYQQKPGQSPRLLIYGATSLADGVPARFSGSRSGTEFTLTISSLQSEDFAVYYCLQAYNTPWTFGGGTKVEIKRTVAAPDVVMTQSPLSLPVTPGEPASISCKSSQSLLDSDGKTYLNWLLQKPGQSPQRLIYLVSKLDSGVPDRFSGSGSGTDFTLKISRVEAEDVGVYYCWQGTHFPRTFGQGTKVEIK
notes: DVD-Ig
Take B7: in the assay with rmTfR (123-763) [8], the Kd was 1.7 nM, the off-rate constant (koff) worked out at 4.8e-05 s⁻¹ and the kon worked out at 28000 M⁻¹ s⁻¹. The molecule also had an EC50 in [5] of 0.15 nM.

B8: anti-TNF antibody 8C11 (antibody, V domains shown)
VH: EFQLQQSGPELVKPGASVRISCKASGYSFTDYNMNWVKQSNGKSLEWVGVINPNYGSSTYNQKFKGKATLTVDQSSSTAYMQLNSLTSEDSAVYYCARKWGQLGRGFFDVWGTGTTVTVSS
VL: QIVLSQSPAILSASPGEKVTMTCRASSSVSYMHWFQQKPGSSPKPWIYATSNLASGVPARFSGSGSGTSYSLTISRVEAEDAATYYCQQWSSSPLTFGAGTKLELKR
Consider B8, for which, in the assay with TNF, the “L929 TNF Neutralization assay IC50” value was determined as 5 nM.
